The source of these data is patent US20180346580A1 (INTERVET, published 2018).

Residue numbers refer to the chain shown, from its start.

Assay [1] deals with T1, HIS-tagged extracellular domain of canine IL-4 receptor alpha chain (canine).
T1 construct: also called canine IL-4 receptor alpha chain ECD HIS-tagged protein; extracellular domain of canine IL-4Rα
T1 chain: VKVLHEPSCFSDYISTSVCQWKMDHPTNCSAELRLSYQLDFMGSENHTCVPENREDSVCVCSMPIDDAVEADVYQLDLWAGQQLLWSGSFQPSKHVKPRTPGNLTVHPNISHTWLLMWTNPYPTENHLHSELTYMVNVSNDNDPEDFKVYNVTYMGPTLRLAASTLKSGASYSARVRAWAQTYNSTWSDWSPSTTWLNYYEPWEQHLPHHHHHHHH
Nature of the assay: ELISA on plate-coated HIS-tagged canine IL-4Rα ECD, detection with HRP goat anti-mouse IgG. On the procedure:
This procedure was repeated as necessary to obtain adequate amounts of mAb from each hybridoma clone. Harvested cell suspensions were centrifuged and the supernatants were filtered through 0.2 micron filter membranes. For antibody purification, each clone's supernatant was purified using a Protein G Sepharose 4 Fast flow 5 mL column (GE Healthcare) by gravity flow. After washing with Tris-EDTA (TE) buffer pH 8.0, bound antibodies were eluted using 0.1 M glycine buffer, pH 2.7, followed by pH neutralization using 1 M Tris, pH 8.0. Antibodies were concentrated and buffer exchanged into phosphate-buffered saline (PBS) using Centriprep YM-10 kDa NMWL centrifugal filter units (Millipore). Antibody concentrations were quantified using spectrophotometry. Purified anti-canine IL-4 receptor α chain mAbs were tested for reactivity with the HIS-tagged ECD domain of canine IL-4 receptor alpha chain by ELISA as follows: HIS-tagged canine IL-4 receptor alpha chain protein is diluted to 10 μg/mL in coating buffer (Carbonate/Bicarbonate pH 9.0) and dispensed at 100 μl/well in 96-well flat bottomed ELISA plates (NUNC). The plates are incubated at 4° C. overnight. The plates are then washed three times with phosphate buffered saline containing 0.05% Tween-20 (PBST). Next, 200 μl of blocking buffer (5% skim milk in PBST) is added to each well and the plates are incubated at 37° C. for 60 minutes. The plates are then washed three times with PBST. Next, 100 μl of test mAbs diluted in blocking buffer is added to the first wells of the appropriate columns. Test mAbs are then diluted three-fold to the appropriate plate position. Following incubation of the plates at 37° C. for 60 minutes, the plates are washed three times with PBST. Next, 100 μl per well of a 1:2,000 dilution of a horseradish peroxidase conjugated goat anti-mouse IgG (KPL) is added to the plates, which are then incubated at 37° C. for 60 minutes. Then the plates are washed three times with PBST, and 100 μl/well of 3,3′,5,5′ tetramethyl benzidine, (TMB) substrate (from KPL) is added to the plates. The color reaction is allowed to develop for 5-20 minutes at 37° C. prior to measuring absorbance at 650 nm.
Various mouse anti-canine IL-4Rα monoclonal antibodies (mAbs) were assayed by ELISA for their ability to bind the extracellular domain of canine IL-4Rα.
(An ELISA detects its analyte on a solid surface through an enzyme-linked reagent.)

Assay [2] deals with T2, canine IL-4 receptor alpha chain (full length) expressed on the surface of CHO DG44 cells (canine).
T2 construct: also called cIL-4Rα; CHO-cIL-4Rα
T2 chain: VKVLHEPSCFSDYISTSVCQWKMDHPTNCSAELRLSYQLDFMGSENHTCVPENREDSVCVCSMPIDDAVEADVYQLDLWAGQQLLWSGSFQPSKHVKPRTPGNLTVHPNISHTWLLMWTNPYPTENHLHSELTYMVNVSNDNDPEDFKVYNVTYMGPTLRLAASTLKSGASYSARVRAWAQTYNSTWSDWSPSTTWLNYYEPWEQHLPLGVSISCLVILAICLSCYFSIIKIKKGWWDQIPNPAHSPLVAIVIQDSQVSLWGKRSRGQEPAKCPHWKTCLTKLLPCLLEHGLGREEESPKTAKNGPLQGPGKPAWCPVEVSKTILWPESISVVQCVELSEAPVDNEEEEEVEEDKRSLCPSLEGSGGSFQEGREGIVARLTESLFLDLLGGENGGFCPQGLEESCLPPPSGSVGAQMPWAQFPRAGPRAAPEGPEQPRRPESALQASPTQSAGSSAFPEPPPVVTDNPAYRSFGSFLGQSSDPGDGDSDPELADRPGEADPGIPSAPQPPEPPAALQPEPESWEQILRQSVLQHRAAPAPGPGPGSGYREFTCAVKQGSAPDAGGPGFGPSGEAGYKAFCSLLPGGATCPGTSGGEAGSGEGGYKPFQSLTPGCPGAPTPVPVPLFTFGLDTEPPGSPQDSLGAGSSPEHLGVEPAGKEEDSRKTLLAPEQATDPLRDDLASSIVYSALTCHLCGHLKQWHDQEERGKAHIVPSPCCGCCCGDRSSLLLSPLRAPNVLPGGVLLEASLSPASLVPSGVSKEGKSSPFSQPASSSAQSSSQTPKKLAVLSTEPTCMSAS
In words: flow cytometry, binding to CHO-cIL-4Rα cells. For orientation: In flow cytometry, cells or beads pass a laser one at a time.

For assay [3], the target named is T2, canine IL-4 receptor alpha chain (full …). In words: flow cytometry ligand blockade on CHO-cIL-4Rα cells; competitor biotinylated canine IL-4 at 0.32 µg/mL. Here is the method:
Procedure: [0247] 1. CHO-DH44-canIL-4Rα cell grown to 2-4 ×10⁶ cells/mL with more than 96% viability. [0248] 2. The cells were spun down, the supernatant discarded, and the cells were suspended in FACS buffer to 2×10⁷ cells/mL. [0249] 3. The cells were distributed into a U-shape 96-well plate, 50 μl each well. [0250] 4. The anti-canine IL-4Rα mAbs in FACS buffer was diluted three-fold on a 96-well plate from top down to bottom well, starting at 50 μg/mL. [0251] 5. 50 μl of each diluted Ab was transferred into the cell plate and then incubated on ice for 30 min. [0252] 6. The cells were washed twice with FACS buffer. [0253] 7. The cells were resuspended into 100 μl of biotinylated canine IL-4 at 0.32 μg/mL in FACS buffer and incubated on ice for 30 min. [0254] 8. The cells were washed twice with FACS buffer. [0255] 9. The cells were responded into 100 μl of R-phycoerythin conjugated Streptavidin (1:1000 dilution) in FACS buffer and incubated on ice for 30 min. [0256] 10. The cells were washed twice with FACS buffer. [0257] 11. The cells were brought up to 300 μl in FACS buffer. [0258] 12. 10,000 cells were read for each sample by BD Accuri-C6. [0259] 13. The resulting readout were analyzed by FlowJo to get the mean fluorescent intensity (MFI).

B1: 1A3 (antibody, V domains shown)
VH: EVQLVESGGDLVKPGGSLKLSCAASGFTFSDFGMHWVRQAPEKGLGWVAYISSGSGTIYYADTVRGRFTISRDNVKNTLFLQMTSLRSEDTAMYYCVRGDLYYGSSFDAYWGRGTLVTVSA
VL: QIVLSQSPAILSASPGEKVTMTCRASSSVSFMFWYQQKPGSSPKPWIYDTSNLASGVPARFSGSGSGTSYSLTISRVEAEDAATYYCQQWSSNPLTFGAGTKLELK
notes: member of the group m16; also called mAb 1A3; mouse anti-canine IL-4Rα monoclonal antibody 1A3
As usually defined, the EC50 (read off the curve) is the concentration that produces a half-maximal response. Lower therefore signals an effect from little substance. Take B1: the “EC50 (read off the curve)” value in assay [1] is about 0.1 nM.

B2: mouse anti-canine IL-4Rα monoclonal antibody 6C12 (antibody, V domains shown)
VH: QIQLIQSGPELKKPGETVKISCKASGYTFTTFGMSWVKQAPGKGLKWMGWISTYSGVPTYADDFKGRFAFSLETSASTAYLQINNLKNEDTASYFCARHTFQSRGLAYWGQGTLVTVSA
VL: DIVMTQSHKFMSTSVGDRVSITCKASQDVITTVAWYQQKPGQSPKLLIYSASYRYTGVPDRFTGSGSGTDFTFTITSVQTEDLAVYYCQQHYSTPWTFGGGTKLEIK
notes: Hybridoma-derived mouse antibody; also called mAb 6C12
One may read the EC50 as the concentration giving half of the maximal effect. The IC50 is the point on the concentration scale where inhibition reaches its midpoint. Low values mean greater potency, high ones weaker potency. In assay [2], B2 came in with a concentration for a half-maximal effect (EC50) of 8.6 nM. The same molecule came in with a 50% inhibitory concentration (IC50) in assay [3] of 19.3 nM.

B3: mouse anti-canine IL-4Rα monoclonal antibody 11B6 (antibody, V domains shown)
VH: EVQLQESGPGLAKPSQTLSLTCSVTGYSITSDYWNWIRKFPGNKLEYMGYINYSGNTYYNPSLKSRISITRDTSKNQYYLQLNSVTTEDTATYYCARYGGLRQGSWHFDVWGPGTTVTVSS
VL: QIVLTQSPAIMSASPGEKVTISCSASSSVSYMYWYQQKPGSSPKPWIYRTSNLASGVPARFSGSGSGTSYSLTISSMEAEDAATYYCQQYHSYPATFGGGTKLEIK
notes: Hybridoma-derived mouse antibody; also called mAb 11B6
Turning to B3, the “EC50 (read off the curve)” value in assay [1] is about 0.3 nM. For the same molecule, the response in assay [2] was half-maximal at 7.5 nM (EC50). The IC50 in assay [3] was determined as 53.2 nM.

B4: 11D3 (antibody, V domains shown)
VH: QIQLVQSGPELKKPGETVKISCKASGYIFTTYGMYWVKQAPGKGLKWMGWINTYSGVPTYVDDFKGRFAFSLETSASTAYLQINNLKNEDTATYFCVVAGWFAYWGQGTLVTVSA
VL: DIKMTQSPSSMYASLGERVTITCKASQDIKSYLSWFQQKPGKSPKTLIYRANILIDGVPSRFSGSGSGQDYSLTISSLEYEDMGIYYCLQYDEFPYTFGGGTKLEIK
notes: member of the group m16; also called mAb 11D3; mouse anti-canine IL-4Rα monoclonal antibody 11D3
B4: in assay [1], the “EC50 (read off the curve)” value was about 0.1 nM.

B5: mouse anti-canine IL-4Rα monoclonal antibody 4H3 (antibody, V domains shown)
VH: QVQLQQPGAELVKPGASVKLSCKASGYTFTNYWIHWMKQRPGRGLEWIGRIDPNSGGTKYNEKFKSKATLTVDKPSITAYMQLSSLTSEDSAVYYCAAFGSTYGFAYWGQGTLVTVSA
VL: DIVMSQSPSSLAVSAGEKVTMSCKSSQSLLNSRTRKNYLAWYQQKPGQSPKLLIYWASTRESGVPDRFTGSGSGTDFTLTISSVQAEDLAVYYCKQSYNLYTFGGGTKLEIK
notes: Hybridoma-derived mouse antibody; also called mAb 4H3
For the molecule B5, in assay [2], the EC50 was determined as 1.6 nM. The molecule also showed a half-inhibitory concentration (IC50) in assay [3] of 3.9 nM.

B6: mouse anti-canine IL-4Rα monoclonal antibody 2E2 (antibody, V domains shown)
VH: EVKLVESGGGLVQPGGSLKLSCVASGFTFSDYHMHWVRQTPEKRLEWVAYISKGGGSTYYPDTEKGRFTISRDNAKNTLYLQMSRLKSEDTAMYYCARSPGPSSFYWYFDVWGTGTTVTVSS
VL: DIQMTQSPASLSASVGETVTITCRASENIYSYLAWYQQKQGKSPQLLVYNAKTLAEGVPSRFSGSGSGTQFSLKINSLQPEDFGSYYCQHHYGIPVTVGVGTKLELK
notes: Hybridoma-derived mouse antibody; also called mAb 2E2
For the molecule B6, in assay [2], the midpoint of the response, the EC50, lay at 1.2 nM. The molecule also had a concentration for half-maximal inhibition (IC50) in assay [3] of 2.1 nM.

B7: mouse anti-canine IL-4Rα monoclonal antibody 4D8 (antibody, V domains shown)
VH: EVTLVESGGGLVQPGGSLKLSCAASGFTFSDYYMYWVRQTPEKRLEWVAYISPGGGSTYYPDTIKGRFTISRDNAKNTLYLQMSRLKSEDTAMYYCTRHGSPYGSSRGAWFAYWGQGTLVTVSA
VL: B6 VL with A51G, S60A, Y92D, V98F, V100A
notes: Hybridoma-derived mouse antibody; also called mAb 4D8
Consider B7, for which a half-maximal response in assay [2] (EC50) required 1.1 nM. The same molecule registered an IC50 in assay [3] of 4.2 nM.

B8: 1A9 (antibody, V domains shown)
VH: QVPLQQSGPELVKPGASVKISCKASGYAFSSSWMNWVKQRPGKGLEWIGRIYPGDGDTKYNGKFKGKATLTADKSSSTAYMQLSSLTSEDSAVYFCARDDYDEASWGQGTLVTVSA
VL: DIVMTQSQKFMSTSVGDRVSITCKASQNVRSAVAWYQQKPGQSPKSLIYLASNRHTGVPDRFTGSGSGTDFTLTISNVQSEDLADYFCLQHWNYPFTFGSGTKLEIK
notes: member of the group m16; also called mAb 1A9; mouse anti-canine IL-4Rα monoclonal antibody 1A9
Consider B8, for which, in assay [1], the “EC50 (read off the curve)” value was about 0.2 nM.

B9: 1B12 (antibody, V domains shown)
VH: EVQLQQSGPELVKPGASVKISCKASGYTFTDYYMNWVKQSHGKSLEWIGDIIPSNGGTSYNQKFKGKATLTVDKSSSAAYMELRSLTSEDSAVYYCARGISYYGNRYYFTMDYWGQGTSVTVSS
VL: DIVMTQAAPSVPVTPGESVSISCRSSKSLLHSNGNTYLFWFVQRPGQSPQLLIYRMSNLASGVPDRFSGSGSGTAFTLRISRVEAEDVGVYYCMQHLEYPFTFGSGTKLDIK
notes: member of the group m16; also called mAb 1B12; mouse anti-canine IL-4Rα monoclonal antibody 1B12
Consider B9, for which the binding result in assay [1] is “binds”.

B10: 10E10 (antibody, V domains shown)
VH: QVQLQQSGPELVKPGASVKLSCKASGYTFTTYDIHWVKQRPGQGLEWIGWIYPRDGRTTYNEKFKAKATLTVDTSSTTAYMELHSLTSEDSAVYFCARSSPFGYWGQGTTLTVSS
VL: DIQMTQSSSYLSVSLGGRVTITCKASDHINNWLAWYQQKPGNAPRLLISGATSLETGVPSRFSGSGSGKDYTLSITSLQTEDAATYHCHQYWSIPYTFGGGTKVEIK
notes: member of the group m16; also called mAb 10E10; mouse anti-canine IL-4Rα monoclonal antibody 10E10
B10: the binding result in assay [1] is recorded as “binds”.

B11: 10F2 (antibody, V domains shown)
VH: QVHLKESGPGLVAPSQSLSITCTVSGFSLTSYGVSWVRQPPGEGLEWLGVIWGDGSTYFHSALISRLSISKDDSKSQVFLKLNSLQTDDTATYYCAKQGTIYDGYYNYAMDYWGQGTSVTVSS
VL: DIVMSQSPSSLTVSVGEKVTMSCKSSQNLLYGGNQKNYLAWYQQKPGQSPKLLIYWASTRESGVPDRFTGSGSGTDFTLTISSVRAEDLAVYYCQQYYDYPYTFGGGTKLEIK
notes: member of the group m16; also called mAb 10F2; mouse anti-canine IL-4Rα monoclonal antibody 10F2
Consider B11, for which the “EC50 (read off the curve)” value in assay [1] is about 0.3 nM.
